One may read the Kd as a measure of binding affinity in units of concentration.

The values below come from article PMC8194828.

In series [1] the test system is PIP4K2A (WT) (Homo sapiens). Briefly: EMSA. To be noted: EMSA 60 min 16 C, 5 ug yeast tRNA, 40 U RNase inhibitor; fluorescent: 500 mM NaCl, 10 mM Tris pH 7.5, 10% glycerol; radioactive: 30 mM KCl, 1 mM MgCl2, 40 mM …. In general terms: A gel shift assay detects complexes by their altered migration in electrophoresis.
Series [2] concerns PIP4K2A G131L Y138F (kinase dead) (Homo sapiens). As to the kind of experiment: EMSA. To be noted: EMSA 60 min 16 C, 5 ug yeast tRNA, 40 U RNase inhibitor; fluorescent: 500 mM NaCl, 10 mM Tris pH 7.5, 10% glycerol; radioactive: 30 mM KCl, 1 mM MgCl2, 40 mM ….

With RAD51 3'UTR, in series [1], the Kd was determined as 750 nM.

Turning to “RAD51-short (5' proximal 35 bases of RAD51 3'UTR)”, the Kd in series [1] came out at 500 nM; in series [2], 850 nM.
